Source: US20190077860A1 (EISAI R AND D MANAGEMENT, published 2019)

T1: human EphB2 extracellular region-SEAP-His protein (human, UniProt P29323 19-543)
T1 construct: extracellular domain; also called hEphB2-SEAP-His
T1 sequence (looked up): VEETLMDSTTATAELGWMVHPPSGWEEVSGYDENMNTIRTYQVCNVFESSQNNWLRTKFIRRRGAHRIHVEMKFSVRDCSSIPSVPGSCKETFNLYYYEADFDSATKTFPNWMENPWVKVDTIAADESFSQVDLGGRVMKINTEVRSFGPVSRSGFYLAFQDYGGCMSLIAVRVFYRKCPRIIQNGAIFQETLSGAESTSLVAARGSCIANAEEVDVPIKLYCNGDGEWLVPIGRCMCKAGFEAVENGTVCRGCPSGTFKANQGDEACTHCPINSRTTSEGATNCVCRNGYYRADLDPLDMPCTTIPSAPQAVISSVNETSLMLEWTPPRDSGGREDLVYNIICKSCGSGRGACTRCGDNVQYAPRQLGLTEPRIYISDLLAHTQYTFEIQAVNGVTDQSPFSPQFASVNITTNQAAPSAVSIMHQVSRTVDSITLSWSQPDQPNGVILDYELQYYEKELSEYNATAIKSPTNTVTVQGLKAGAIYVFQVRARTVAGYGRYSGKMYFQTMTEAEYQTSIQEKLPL


What was measured:
[1] = molecular target: T2, human EphA4 extracellular region-SEAP-His protein (human, UniProt P54764 20-547); experiment: competition ELISA, competitor human Ephrin A5-Fc
T2 construct: also called hEphA4-SEAP-His
T2 sequence (P54764 20-547): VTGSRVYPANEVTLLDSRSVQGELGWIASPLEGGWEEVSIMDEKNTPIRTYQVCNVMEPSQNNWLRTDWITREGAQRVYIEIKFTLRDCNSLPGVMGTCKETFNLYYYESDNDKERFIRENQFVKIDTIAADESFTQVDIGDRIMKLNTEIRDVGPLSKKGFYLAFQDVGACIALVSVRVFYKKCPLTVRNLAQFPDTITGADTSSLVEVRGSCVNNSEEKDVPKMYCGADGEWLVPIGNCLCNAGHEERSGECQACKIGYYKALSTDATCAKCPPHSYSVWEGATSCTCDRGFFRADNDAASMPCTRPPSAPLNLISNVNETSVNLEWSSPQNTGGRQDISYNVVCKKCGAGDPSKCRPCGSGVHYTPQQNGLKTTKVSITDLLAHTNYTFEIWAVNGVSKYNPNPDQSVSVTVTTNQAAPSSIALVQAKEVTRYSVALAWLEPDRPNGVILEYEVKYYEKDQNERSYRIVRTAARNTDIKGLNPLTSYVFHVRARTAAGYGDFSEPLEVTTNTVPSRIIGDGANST
Summary of the method: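 Ligand binding to captured receptor measured as A450 after HRP-streptavidin/TMBZ development and acid stop. Receptor fusion (10 nM final) was immobilised via anti-alkaline phosphatase antibody; biotinylated Ephrin A5-Fc (0.7 nM final) added together with antibody titrations from 0 to 3000 nM, 1 h, room temperature.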

[2] = molecular target: T2, human EphA4 extracellular …; experiment: SPR, Ab captured
Summary of the method: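 Affinity (KD=kd/ka) obtained by fitting SPR curves to a 1:1 model. Analyte was human EphA4 extracellular region-SEAP-His, injected sequentially from 0.6 to 50 nM in HBS-EP (120 s on, 900 s off), onto humanized antibodies on protein A or antibody A on anti-mouse IgG1 surfaces, capture level about 30–60 RU.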

[3] = molecular target: T1, human EphB2 extracellular …; experiment: ELISA

Binder	IC50 [1] [nM]	Kd [2] [nM]	koff [2] [s⁻¹]	kon [2] [M⁻¹ s⁻¹]	A450 as % of hEphA4-SEAP-His [3] [%]
humanized antibody No. 134 (antibody, human IgG2, human Ig kappa; also called L2-4/HA2) heavy: QVQLVQSGSELKKPGASVKVSCKASGYTFTDYSMHWVRQAPGQGLKWMGWINTETGEPTYAQGFTGRFVFSLDTSVSTAYLQISSLKAEDTAVYYCARIPLYYYGSRYWYFDVWGQGTTVTVSSASTKGPSVFPLAPSSRSTSESTAALGCLVKDYFPEPVTVSWNSGALTSGVHTFPAVLQSSGLYSLSSVVTVPSSNFGTQTYTCNVDHKPSNTKVDKTVERKSCVECPPCPAPPAAAPSVFLFPPKPKDTLMISRTPEVTCVVVDVSHEDPEVQFNWYVDGVEVHNAKTKPREEQFNSTFRVVSVLTVVHQDWLNGKEYKCKVSNKGLPAPIEKTISKTKGQPREPQVYTLPPSREEMTKNQVSLTCLVKGFYPSDIAVEWESNGQPENNYKTTPPMLDSDGSFFLYSKLTVDKSRWQQGNVFSCSVMHEALHNHYTQKSLSLSPG light: EIVMTQSPATLSVSPGERATLSCRASENIYRNLAWYQQKPGQSPRLLIYAATNLADGIPARFSGSGSGTEYTLTISSLQSEDFAVYYCQHFWGTPWTFGQGTKVEIKRTVAAPSVFIFPPSDEQLKSGTASVVCLLNNFYPREAKVQWKVDNALQSGNSQESVTEQDSKDSTYSLSSTLTLSKADYEKHKVYACEVTHQGLSSPVTKSFNRGEC	3	1.2	0.00032	280000	5.1
humanized antibody No. 157 (antibody, human IgG2, human Ig kappa; also called L1-6/HA1) heavy: QVQLVQSGSELKKPGASVKVSCKASGYTFTDYSMHWVRQAPGQGLEWMGWINTETGEPTYAQGFTGRFVFSLDTSVSTAYLQISSLKAEDTAVYYCARIPLYYYGSRYWYFDVWGQGTTVTVSSASTKGPSVFPLAPSSRSTSESTAALGCLVKDYFPEPVTVSWNSGALTSGVHTFPAVLQSSGLYSLSSVVTVPSSNFGTQTYTCNVDHKPSNTKVDKTVERKSCVECPPCPAPPAAAPSVFLFPPKPKDTLMISRTPEVTCVVVDVSHEDPEVQFNWYVDGVEVHNAKTKPREEQFNSTFRVVSVLTVVHQDWLNGKEYKCKVSNKGLPAPIEKTISKTKGQPREPQVYTLPPSREEMTKNQVSLTCLVKGFYPSDIAVEWESNGQPENNYKTTPPMLDSDGSFFLYSKLTVDKSRWQQGNVFSCSVMHEALHNHYTQKSLSLSPG light: DIQMTQSPSSLSASVGDRVTITCRASENIYRNLAWYQQKPGKAPQLLLYAATNLADGVPSRFSGSGSGTDYTLTISSLQPEDFATYYCQHFWGTPWTFGQGTKVEIKRTVAAPSVFIFPPSDEQLKSGTASVVCLLNNFYPREAKVQWKVDNALQSGNSQESVTEQDSKDSTYSLSSTLTLSKADYEKHKVYACEVTHQGLSSPVTKSFNRGEC	2.6	2	0.00068	350000	6.2
humanized antibody No. 158 (antibody, human IgG2, human Ig kappa; also called L1-6/HA2) heavy: QVQLVQSGSELKKPGASVKVSCKASGYTFTDYSMHWVRQAPGQGLKWMGWINTETGEPTYAQGFTGRFVFSLDTSVSTAYLQISSLKAEDTAVYYCARIPLYYYGSRYWYFDVWGQGTTVTVSSASTKGPSVFPLAPSSRSTSESTAALGCLVKDYFPEPVTVSWNSGALTSGVHTFPAVLQSSGLYSLSSVVTVPSSNFGTQTYTCNVDHKPSNTKVDKTVERKSCVECPPCPAPPAAAPSVFLFPPKPKDTLMISRTPEVTCVVVDVSHEDPEVQFNWYVDGVEVHNAKTKPREEQFNSTFRVVSVLTVVHQDWLNGKEYKCKVSNKGLPAPIEKTISKTKGQPREPQVYTLPPSREEMTKNQVSLTCLVKGFYPSDIAVEWESNGQPENNYKTTPPMLDSDGSFFLYSKLTVDKSRWQQGNVFSCSVMHEALHNHYTQKSLSLSPG light: DIQMTQSPSSLSASVGDRVTITCRASENIYRNLAWYQQKPGKAPQLLLYAATNLADGVPSRFSGSGSGTDYTLTISSLQPEDFATYYCQHFWGTPWTFGQGTKVEIKRTVAAPSVFIFPPSDEQLKSGTASVVCLLNNFYPREAKVQWKVDNALQSGNSQESVTEQDSKDSTYSLSSTLTLSKADYEKHKVYACEVTHQGLSSPVTKSFNRGEC	2.8	1.9	0.00061	310000	6.3
humanized antibody No. 159 (antibody, human IgG2, human Ig kappa; also called L1-6/HK2) heavy: QVQLVQSGSELKKPGASVKVSCKASGYTFTDYSMHWVRQAPGQGLKWMGWINTETGEPTYADDFKGRFVFSLDTSVSTAYLQISSLKAEDTAVYYCARIPLYYYGSRYWYFDVWGQGTTVTVSSASTKGPSVFPLAPSSRSTSESTAALGCLVKDYFPEPVTVSWNSGALTSGVHTFPAVLQSSGLYSLSSVVTVPSSNFGTQTYTCNVDHKPSNTKVDKTVERKSCVECPPCPAPPAAAPSVFLFPPKPKDTLMISRTPEVTCVVVDVSHEDPEVQFNWYVDGVEVHNAKTKPREEQFNSTFRVVSVLTVVHQDWLNGKEYKCKVSNKGLPAPIEKTISKTKGQPREPQVYTLPPSREEMTKNQVSLTCLVKGFYPSDIAVEWESNGQPENNYKTTPPMLDSDGSFFLYSKLTVDKSRWQQGNVFSCSVMHEALHNHYTQKSLSLSPG light: DIQMTQSPSSLSASVGDRVTITCRASENIYRNLAWYQQKPGKAPQLLLYAATNLADGVPSRFSGSGSGTDYTLTISSLQPEDFATYYCQHFWGTPWTFGQGTKVEIKRTVAAPSVFIFPPSDEQLKSGTASVVCLLNNFYPREAKVQWKVDNALQSGNSQESVTEQDSKDSTYSLSSTLTLSKADYEKHKVYACEVTHQGLSSPVTKSFNRGEC	2.6	2	0.00061	310000	5.4
humanized antibody No. 156 (antibody, human IgG2, human Ig kappa; also called L1-6/HA4) heavy: QIQLVQSGSELKKPGASVKVSCKASGYTFTDYSMHWVRQAPGQGLKWMGWINTETGEPTYAQGFTGRFVFSLDTSVSTAYLQISSLKAEDTAVYYCARIPLYYYGSRYWYFDVWGQGTTVTVSSASTKGPSVFPLAPSSRSTSESTAALGCLVKDYFPEPVTVSWNSGALTSGVHTFPAVLQSSGLYSLSSVVTVPSSNFGTQTYTCNVDHKPSNTKVDKTVERKSCVECPPCPAPPAAAPSVFLFPPKPKDTLMISRTPEVTCVVVDVSHEDPEVQFNWYVDGVEVHNAKTKPREEQFNSTFRVVSVLTVVHQDWLNGKEYKCKVSNKGLPAPIEKTISKTKGQPREPQVYTLPPSREEMTKNQVSLTCLVKGFYPSDIAVEWESNGQPENNYKTTPPMLDSDGSFFLYSKLTVDKSRWQQGNVFSCSVMHEALHNHYTQKSLSLSPG light: DIQMTQSPSSLSASVGDRVTITCRASENIYRNLAWYQQKPGKAPQLLLYAATNLADGVPSRFSGSGSGTDYTLTISSLQPEDFATYYCQHFWGTPWTFGQGTKVEIKRTVAAPSVFIFPPSDEQLKSGTASVVCLLNNFYPREAKVQWKVDNALQSGNSQESVTEQDSKDSTYSLSSTLTLSKADYEKHKVYACEVTHQGLSSPVTKSFNRGEC	2.5	1.6	0.00056	310000	5.5

Stronger by IC50 [1], values ahead:

IC50 [1] [nM]	Kd [2] [nM]	koff [2] [s⁻¹]	kon [2] [M⁻¹ s⁻¹]	A450 as % of hEphA4-SEAP-His [3] [%]	Binder
2.4	1.9	0.00064	330000	5.5	humanized antibody No. 155 (antibody, human IgG2, human Ig kappa; also called L1-5/HK4) heavy: QIQLVQSGSELKKPGASVKVSCKASGYTFTDYSMHWVRQAPGQGLKWMGWINTETGEPTYADDFKGRFVFSLDTSVSTAYLQISSLKAEDTAVYYCARIPLYYYGSRYWYFDVWGQGTTVTVSSASTKGPSVFPLAPSSRSTSESTAALGCLVKDYFPEPVTVSWNSGALTSGVHTFPAVLQSSGLYSLSSVVTVPSSNFGTQTYTCNVDHKPSNTKVDKTVERKSCVECPPCPAPPAAAPSVFLFPPKPKDTLMISRTPEVTCVVVDVSHEDPEVQFNWYVDGVEVHNAKTKPREEQFNSTFRVVSVLTVVHQDWLNGKEYKCKVSNKGLPAPIEKTISKTKGQPREPQVYTLPPSREEMTKNQVSLTCLVKGFYPSDIAVEWESNGQPENNYKTTPPMLDSDGSFFLYSKLTVDKSRWQQGNVFSCSVMHEALHNHYTQKSLSLSPG light: DIQMTQSPSSLSASVGDRVTITCRASENIYRNLAWYQQKPGKAPKLLLYAATNLADGVPSRFSGSGSGTDYTLTISSLQSEDFATYYCQHFWGTPWTFGQGTKVEIKRTVAAPSVFIFPPSDEQLKSGTASVVCLLNNFYPREAKVQWKVDNALQSGNSQESVTEQDSKDSTYSLSSTLTLSKADYEKHKVYACEVTHQGLSSPVTKSFNRGEC
2.2	1.9	0.00061	320000	6.2	humanized antibody No. 160 (antibody, human IgG2, human Ig kappa; also called L1-6/HK4) heavy: QIQLVQSGSELKKPGASVKVSCKASGYTFTDYSMHWVRQAPGQGLKWMGWINTETGEPTYADDFKGRFVFSLDTSVSTAYLQISSLKAEDTAVYYCARIPLYYYGSRYWYFDVWGQGTTVTVSSASTKGPSVFPLAPSSRSTSESTAALGCLVKDYFPEPVTVSWNSGALTSGVHTFPAVLQSSGLYSLSSVVTVPSSNFGTQTYTCNVDHKPSNTKVDKTVERKSCVECPPCPAPPAAAPSVFLFPPKPKDTLMISRTPEVTCVVVDVSHEDPEVQFNWYVDGVEVHNAKTKPREEQFNSTFRVVSVLTVVHQDWLNGKEYKCKVSNKGLPAPIEKTISKTKGQPREPQVYTLPPSREEMTKNQVSLTCLVKGFYPSDIAVEWESNGQPENNYKTTPPMLDSDGSFFLYSKLTVDKSRWQQGNVFSCSVMHEALHNHYTQKSLSLSPG light: DIQMTQSPSSLSASVGDRVTITCRASENIYRNLAWYQQKPGKAPQLLLYAATNLADGVPSRFSGSGSGTDYTLTISSLQPEDFATYYCQHFWGTPWTFGQGTKVEIKRTVAAPSVFIFPPSDEQLKSGTASVVCLLNNFYPREAKVQWKVDNALQSGNSQESVTEQDSKDSTYSLSSTLTLSKADYEKHKVYACEVTHQGLSSPVTKSFNRGEC
